We go through one substance from patent publication US20230416360A1.

In assay [1] the target is human CD22 (full length, on cells) (human) (UniProt P20273). Description: FACS, CHO-K1-human CD22 2C4 cells. For orientation: A flow cytometer gives signals particle by particle.
The target in assay [2] is human CD22-ECD-His (human) (UniProt P20273). Description: ELISA, coated hCD22-ECD-His, antibody 10 nM. For orientation: In an ELISA, binding on a coated surface is turned into a signal by an enzyme label.
For assay [3] the target is unchanged. Description: ELISA, coated hCD22-ECD-His, antibody 0.00001 nM.
The target of assay [4] is human CD22 (full length, on cells) (human) (UniProt P20273). Description: FACS, CHO-K1-human CD22 1G5.
Assay [5] addresses cynomolgus monkey CD22 on peripheral blood B cells (cynomolgus monkey (Macaca fascicularis)). Description: FACS, cynomolgus PBMC, CD20+ B cells, antibody 10 nM.
The target in assay [6] is human CD22-ECD-His (human) (UniProt P20273). Description: ELISA, coated hCD22-ECD-His, antibody 0.01 nM.
Assay [7] concerns the target human CD22 (full length, on cells) (human) (UniProt P20273). Description: FACS, CHO-K1-human CD22 2C4.
The target is the same in assay [8]. Description: FACS, CHO-K1-human CD22 1D9.
For assay [9], the target named is human CD22-ECD-His (human) (UniProt P20273). Description: ELISA, coated hCD22-ECD-His, antibody 0.0001 nM.
Assay [10] addresses cynomolgus monkey CD22 on peripheral blood B cells (cynomolgus monkey (Macaca fascicularis)). Description: FACS, cynomolgus PBMC, CD20+ B cells, antibody 100 nM.
For assay [11] the target is unchanged. Description: FACS, cynomolgus PBMC, CD20+ B cells, antibody 1 nM.
Assay [12] has as its target human CD22 (full length, on cells) (human) (UniProt P20273). Description: FACS, Raji cells.
Assay [13] has as its target human CD22-ECD-His (human) (UniProt P20273). Description: ELISA, coated hCD22-ECD-His, antibody 100 nM.
The target is the same in assay [14]. Description: ELISA, coated hCD22-ECD-His, antibody 0.10 nM.
The target is the same in assay [15]. Description: ELISA, coated hCD22-ECD-His, antibody 0.001 nM.

For the substance “anti-hel-hIgG1 (negative control antibody against chicken egg lysozyme)”, the Max MFI in [1] came to 340; in [12] it was 374. Also, the OD450 was determined as 0.08 in assay [2]; 0.05 in assay [3]; 0.06 in assay [6]; 0.06 in [9]; 0.15 in [13]; 0.06 in assay [14]. The substance further returned an OD450 in [15] of 0.06. Also, the Cell mean fluorescence intensity in assay [4], in assay [7] and in assay [8] was 66 each time. The figures for the Proportion of VHH-Fc antibody positive cells to B cells (%) in assay [5], in [10] and in [11] were 0%, 3% and 0%, respectively. Further, in [12], the Cell mean fluorescence density is 158.
